Measured values: article PMC11754657

Experiments:
[1] = target: rabbit skeletal muscle filamentous actin (rabbit) (UniProt P68135)
[2] = target: rabbit skeletal muscle filamentous actin (rabbit) (UniProt P68135); remark: listed apart in the source

Substance | velocity of actin filaments in the in vitro gliding filament assay (motor domain held by anti-GFP, 10 mM KCl, 2 mM ATP, 30 °C) [1] [nm/s] | K ATPase: F-actin at half-maximal activation of the steady-state ATPase (NADH-coupled assay, 20 °C, 2 mM MgATP, 50 mM KCl) [2] [µM] | kcat: extrapolated maximum rate of the F-actin activated steady-state ATPase (NADH-coupled assay, 20 °C) [2] [s⁻¹]
jordan (p.D1647G) MYO15A motor domain complex M15-2IQ:ELC:RLC (1:1:1) (from UniProt P60661 1-151) | 216 | 114 | 0.87
wild-type MYO15A motor domain complex M15-2IQ:ELC:RLC (1:1:1) (from UniProt P60661 1-151) | 473 | 29.1 | 5.8
